According to patent publication US20200339699A1 (Innovent, published 2020):

B1: human BCMA on NCI-H929 cells (receptor)
chain: MLQMAGQCSQNEYFDSLLHACIPCQLRCSSNTPPLTCQRYCNASVTNSVKGTNAILWTCLGLSLIISLAVFVLMFLLRKINSEPLKDEFKNTGSGLLGMANIDLEKSRTGDEIILPRGLEYTVEECTCEDCIKSKPKVDSDHCFPLPAMEEGATILVTTKTNDYCKSLPAALSATEIEKSISAR
notes: BCMA-positive human multiple myeloma cell line NCI-H929 (ATCC CRL-9068); also called B-cell maturation antigen; CD269

Key:
[1] = target: B1; assay: flow cytometry on NCI-H929 cells, yeast-expressed antibody
Description: The method is specifically as follows: [0293] 1. A human NCI-H929 (ATCC, CRL-9068) cell suspension was taken, adjusted to a cell density of 2×10⁶ cells/mL, and added to a 96-well microplate at 100 μL/well. The cell suspension was centrifuged at 400 G for 5 min and the supernatant was removed. [0294] 2. The anti-BCMA antibody solution was serially diluted in 3-fold gradient in PBS containing 0.1% bovine serum albumin (BSA) from a concentration of 400 nM for a total of 12 points, 100 μL of the dilution of the antibody was added to each well, and then the plate was incubated at 4° C. for 30 min [0295] 3. The mixture was centrifuged at 400 G for 5 min, and washed twice with PBS, and […] of a dilution of a secondary antibody (a phycoerythrin (PE) labeled goat anti-human IgG antibody, SouthernBiotech, final concentration: 5 μg/mL) in PBS (1% BSA) was added to each well. The plate was incubated at 4° C. for 30 min (in the dark). [0296] 4. Then the resulting solution was centrifuged at 400 G for 5min, and washed twice with PBS, and the cells were resuspended with 100 μL of PBS per well. Flow cytometry was performed on an Accuri C6 system (BD Bioscience) to detect PE positive signals, and MFI was calculated based on C6 software. The EC50 values were calculated using GraphPad software.

[2] = target: ADI-34848 scFv-hFc; assay: flow cytometry on NCI-H929 cells, scFv-hFc
[3] = target: ADI-34848 scFv-hFc; assay: BLI (ForteBio Octet Red96), scFv-hFc on AHC sensors, human BCMA-His in solution
Description: The kinetic constants of the antibody molecules were determined based on the biofilm layer interferometry (BLI) of a fiber optic biosensor.
The Fortebio instrument model used in the experiment was Octet Red96, and a ForteBio affinity assay was performed according to the existing method (Estep, P et al., High throughput solution Based measurement of antibody-antigen affinity and epitope binning MAbs, 2013.5 (2): p. 270-8). The assay is specifically as follows: [0317] 1. Half an hour before the experiment, an appropriate number of AHC sensors were taken according to the number of samples and soaked in the SD buffer (50 mL PBS+0.1% BSA +0.05% Tween-20). [0318] 2. SD buffer, scFv-hFc antibodies and human BCMA-His antigens (ACRO BIOSYSTEMS, BCA-H522Y), each of 100 μL were added to a 96-well half-area black polystyrene microplate respectively. [0319] 3. The plates were arranged according to the positions of the samples, the positions of the sensors were selected, and the operation procedures were set as: Baseline, Loading ˜1 nm, Baseline, Association, and Dissociation, each running for a time depending on the binding and dissociation rates of the sample, at a rotation speed of 1,000 rpm and a temperature of 30° C. [0320] 4.

Row | Binder | EC50 [1] [nM] | other results
1 | ADI-34854 (antibody, V domains shown, Yeast-expressed fully human antibody purified on protein A) VH: QVQLVESGGGVVQPGRSLRLSCAASGFTFSSYGMHWVRQAPGKGLEWVAVISYEGSNKYYADSVKGRFTISRDNSKNTLYLQMNSLRAEDTAVYYCARDTSSYGDASYGMDVWGQGTTVTVSS VL: not shown | 83.2 | 
2 | ADI-34848 (antibody, V domains shown, Yeast-expressed fully human antibody purified on protein A) VH: EVQLLESGGGLVQPGGSLRLSCAASGFTFDDYAMHWVRQAPGKGLEWVSGISWSSGSIGYADSVKGRFTISRDNAKNSLYLQMNSLRAEDTAVYYCAKDSPRRDSFGSIAFDIWGQGTMVTVSS VL: not shown | 24.8 | 
3 | ADI-34850 (antibody, V domains shown, Yeast-expressed fully human antibody purified on protein A) VH: EVQLVESGGGLVQPGRSLRLSCAASGFTFDDYAMHWVRQAPGKGLEWVSGISWSSGSIGYADSVKGRFTISRDNAKNSLYLQMNSLRAEDTAVYYCAKDSPRRDSFGSIAFDIWGQGTMVTVSS VL: EIVMTQSPATLSVSPGERATLSCRASQSVGSNLAWYQQKPGQAPRLLIYGASTRATGIPARFSGSGSGTEFTLTISSLQSEDFAVYYCQQSVNLPITFGGGTKVEIK | 12.1 | 
4 | ADI-34849 (antibody, V domains shown, Yeast-expressed fully human antibody purified on protein A) VH: EVQLVESGGGLVQPGRSLRLSCAASGFTFDDYAMHWVRQAPGKGLEWVSGISWSSGSIGYADSVKGRFTISRDNAKNSLYLQMNSLRAEDTAVYYCAKDSPRRDSFGSIAFDIWGQGTMVTVSS VL: EIVLTQSPATLSLSPGERATLSCRASQSVSSYLAWYQQKPGQAPRLLIYDASKRATGIPARFSGSGSGTDFTLTISSLEPEDFAVYYCQQASALPLTFGGGTKVEIK | 9.11 | 
5 | ADI-34846 (antibody, V domains shown, Yeast-expressed fully human antibody purified on protein A) VH: QVQLVQSGAEVKKPGSSVKVSCKASGGTFSNYAISWVRQAPGQGLEWMGGIIPIFGTANYAQKFQGRVTITADESTSTAYMELSSLKSEDTAVYYCARGSGYYSSWLFDIWGQGTMVTVSS VL: not shown | 136 | 
6 | ADI-34860 (antibody, V domains shown, Yeast-expressed fully human antibody purified on protein A) VH: QLQLQESGPGLVKPSETLSLTCTVSGGSISSSSYYWGWIRQPPGKGLEWIGSISYSGSTYYNPSLKSRVTISVDTSKNQFSLKLSSVTAADTAVYYCARDRGDTILDVWGQGTMVTVSS VL: DIQMTQSPSSLSASVGDRVTITCRASQSISSYLNWYQQKPGKAPKLLIYAASSLQSGVPSRFSGSGSGTDFTLTISSLQPEDFATYYCQQKYDLLTFGGGTKVEIK | 144 | 
7 | ADI-34861 (antibody, V domains shown, Yeast-expressed fully human antibody purified on protein A) VH: QLQLQESGPGLVKPSETLSLTCTVSGGSISSSSYYWGWIRQPPGKGLEWIGSISYSGSTYYNPSLKSRVTISVDTSKNQFSLKLSSVTAADTAVYYCARDRGDTILDVWGQGTMVTVSS VL: DIQMTQSPSSLSASVGDRVTITCRASQSISRYLNWYQQKPGKAPKLLIYAASSLQSGVPSRFSGSGSGTDFTLTISSLQPEDFATYYCQQKYFDITFGGGTKVEIK | 65.1 | 
8 | B1 |  | binding result [2]: binds
9 | human BCMA-His (receptor, Bought antigen (ACRO BIOSYSTEMS, BCA-H522Y); probably only the extracellular domain stood in the assay; also called hBCMA-His; monovalent human BCMA; not shown: His tag) MLQMAGQCSQNEYFDSLLHACIPCQLRCSSNTPPLTCQRYCNASVTNSVKGTNA |  | Kd [3]: 71.1 nM; koff [3]: 0.0145 s⁻¹; kon [3]: 204000 M⁻¹ s⁻¹
10 | ADI-34832 (antibody, V domains shown, Yeast-expressed fully human antibody purified on protein A) VH: QITLKESGPTLVKPTQTLTLTCTFSGFSLSTSGVGVGWIRQPPGKALEWLALIYWNDEKRYSPSLKSRLTITKDTSKNQVVLTMTNMDPVDTAVYYCARDPGEQLQVFDYWGQGTLVTVSS VL: DIQMTQSPSSVSASVGDRVTITCRASQGISSWLAWYQQKPGKAPKLLIYAASSLQSGVPSRFSGSGSGTDFTLTISSLQPEDFATYYCQQTLSLPITFGGGTKVEIK | 34.1 | 
11 | ADI-34859 (antibody, V domains shown, Yeast-expressed fully human antibody purified on protein A) VH: QLQLQESGPGLVKPSETLSLTCTVSGGSISSSSYYWGWIRQPPGKGLEWIGSISYSGSTYYNPSLKSRVTISVDTSKNQFSLKLSSVTAADTAVYYCARDRGDTILDVWGQGTMVTVSS VL: DIQMTQSPSSLSASVGDRVTITCRASQSINSYLNWYQQKPGKAPKLLIYAASSLQSGVPSRFSGSGSGTDFTLTISSLQPEDFATYYCQQKASAPITFGGGTKVEIK | 85.8 | 
12 | ADI-34857 (antibody, V domains shown, Yeast-expressed fully human antibody purified on protein A) VH: not shown VL: DIQMTQSPSSLSASVGDRVTITCQASQDITNYLNWYQQKPGKAPKLLIYDASNLETGVPSRFSGSGSGTDFTFTISSLQPEDIATYYCQQAFDLITFGGGTKVEIK | 25.2 | 
